One block for each binder: values may come before it.
What was measured:
[1] = molecular target: human-CD45RO-ECD-His (human) (UniProt P08575); assay: ELISA, human-CD45RO-ECD-His-coated plates
[2] = molecular target: human-CD45RO-ECD-His (human) (UniProt P08575); assay: SPR, captured human-CD45RO-ECD-His, 1:1 binding
[3] = molecular target: human-CD45RO-ECD-His (human) (UniProt P08575); assay: SPR, captured human-CD45RO-ECD-His, 1:1 binding; row label printed 'Clone 023' a second time, taken as clone 028 by the order in paragraph 382

- EC50 [1]: 0.0734 nM
- Kd [2]: 3.72 nM
- koff [2]: 0.000282 s⁻¹
- kon [2]: 75800 M⁻¹ s⁻¹
B1: anti-CD45 antibody clone 027 (antibody, V domains shown)
VH: QVQLQQSAPELARPGASVRMSCKASGYTFTTYTMNWLTQRPGQGLEWIGYINPSSGYTEYNQKFKDKTSLTADTSSSTAYMQLSSLTSEHSAVYYCARASGYSSWFAYWGQGTLVTVSA
VL: NIVMTQTPKFLLVSAGDRVTITCKASQSVNNDVGWYQQKPGQSPKLLIYYASNRYTGVPDRFTGSGYGTDFTFTISTVQAEDLAVYFCQQDYNSPLTFGAGTKLELK

- EC50 [1]: 0.144 nM
B2: anti-CD45 antibody clone 042 (antibody, V domains shown)
VH: EVQLQQSGAELVKPGASVKLSCTASGFNIKDTFMHWVKLRPEQGLEWIGRIDPANGYTKYDPRFQGKATIIADTSSNTAYLQLSSLTSEDTAVYYCASGEYYALDYWGQGTSVTVSS
VL: DIVLTQSPASLTVSLGQRATISCRASKSVSTSGYSYMHWYQQKPGQPPKLLIYLASNLESGVPARFSGSGSGTDFTLNIHPVEEEDAATYYCQHNRELPYTFGGGTKLEIK

- EC50 [1]: 0.139 nM
- Kd [2]: 79.5 nM
- koff [2]: 0.000335 s⁻¹
- kon [2]: 4220 M⁻¹ s⁻¹
B3: anti-CD45 antibody clone 031 (antibody, V domains shown)
VH: DVQLVESGGGLVQPGGSRKLSCAASGFTFSSFGMHWVRQAPEKGLEWVAYINSGSTTFYYADTVKGRFTISRDNPKNTLFLQMTSLGSEDTAMYYCARSATATWTMDYWGQGTSVTVSS
VL: NIMMTQSPSSLAVSAGEKVTMSCKSSQSVFVSSNQKNYLAWYQQKPGQSPKLLIYWASTRESAVPDRFTGSGSGTDFTLTIGSVQAEDLAVYYCHQYLSSWTFGGGTKLEIK

- EC50 [1]: 0.0319 nM
- Kd [3]: 39.9 nM
- koff [3]: 0.000591 s⁻¹
- kon [3]: 14800 M⁻¹ s⁻¹
B4: anti-CD45 antibody clone 028 (antibody, V domains shown)
VH: QVQLQQSGAELARPGASVKMSCKASGYTFTFYAILWVKQMPGQGLEWIGFINPSSGYTSYNQKFKDKATLTADKSSSTAYMQLSSLTSEDSAVYYCARDYGLDYWGQGTTLAVSS
VL: DIVMTQAAPSVPVTPGESVSISCRSSKSLLHSNGNTYLYWFLQRPGQSPQLLIYRMSNLASGVPDRFSGSGSGTAFTLGISRVEAGDVGVYYCMQHLEYPFTFGSGTKLEIK

Reference: patent US20250320294A1
